Results as given in PMC7534208.

Biological target: transportin 1 (TNPO1) (human (endogenous in HeLa)) (UniProt Q92973)
Experiment: proximity ligation

UniProt Q92973, sequence (Q92973 whole entry): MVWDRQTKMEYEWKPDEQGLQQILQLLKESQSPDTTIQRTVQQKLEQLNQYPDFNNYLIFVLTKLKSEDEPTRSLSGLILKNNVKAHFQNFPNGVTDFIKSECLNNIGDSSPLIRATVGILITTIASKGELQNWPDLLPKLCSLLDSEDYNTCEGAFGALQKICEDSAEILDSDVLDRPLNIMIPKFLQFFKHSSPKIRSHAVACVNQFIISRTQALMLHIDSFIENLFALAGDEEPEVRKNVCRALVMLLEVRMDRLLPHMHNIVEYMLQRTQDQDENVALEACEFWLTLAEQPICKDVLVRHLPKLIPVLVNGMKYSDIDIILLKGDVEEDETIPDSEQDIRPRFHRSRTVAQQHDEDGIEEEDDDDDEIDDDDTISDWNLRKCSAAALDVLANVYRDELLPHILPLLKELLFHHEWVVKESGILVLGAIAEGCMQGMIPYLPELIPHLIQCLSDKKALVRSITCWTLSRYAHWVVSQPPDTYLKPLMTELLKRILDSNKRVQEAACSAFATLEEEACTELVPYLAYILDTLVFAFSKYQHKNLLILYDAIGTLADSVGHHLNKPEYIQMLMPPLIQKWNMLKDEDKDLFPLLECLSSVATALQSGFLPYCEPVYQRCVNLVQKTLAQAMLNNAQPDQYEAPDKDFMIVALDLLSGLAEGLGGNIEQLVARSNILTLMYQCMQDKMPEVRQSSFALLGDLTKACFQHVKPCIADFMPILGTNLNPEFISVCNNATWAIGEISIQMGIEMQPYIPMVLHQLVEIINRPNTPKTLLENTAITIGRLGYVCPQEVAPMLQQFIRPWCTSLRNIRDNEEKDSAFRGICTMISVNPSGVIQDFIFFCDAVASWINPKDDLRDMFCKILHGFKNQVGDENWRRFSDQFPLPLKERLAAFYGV

HIV-1 Rev (regulator of expression of virion proteins), HA-tagged (from UniProt P04618 1-116) (natural protein)
PLA puncta per cell (puncta per cell): 26
